Patent US20180244730A1 (OXFORD UNIVERSITY INNOVATION, published 2018)

B1: RrgACatcher (designed binder)
chain: KLGDIEFIKVNKNDKKPLRGAVFSLQKQHPDYPDIYGAIDQNGTYQNVRTGEDGKLTFKNLSDGKYRLFENSEPAGYKPVQNKPIVAFQIVNGEVRDVTSIVPQ
B2: SnoopCatcher (designed binder)
chain: MGSSHHHHHHSSGLVPRGSHMKPLRGAVFSLQKQHPDYPDIYGAIDQNGTYQNVRTGEDGKLTFKNLSDGKYRLFENSEPAGYKPVQNKPIVAFQIVNGEVRDVTSIVPQDIPATYEFTNGKHYITNEPIPPK
notes: also called SnoopCatcher fused to a His-Tag

Assays:
SnoopCatcher [1] = biological target: B2; test: electrospray ionization mass spectrometry
SnoopTag-MBP [2] = test: mixing, SDS-PAGE with Coomassie staining
SnoopCatcher [3] = biological target: B2; test: mixing, SDS-PAGE with Coomassie staining
SpyCatcher = biological target: T1, SpyCatcher; test: mixing, SDS-PAGE with Coomassie staining
T1 construct: also called pDEST14-SpyCatcher (GenBank JQ478411, Addgene plasmid ID 35044)
T1 sequence (chain, as listed by the source): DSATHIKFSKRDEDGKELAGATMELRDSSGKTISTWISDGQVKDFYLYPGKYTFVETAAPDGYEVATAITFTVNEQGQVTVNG

SnoopTag-MBP [4] = test: mixing, SDS-PAGE with Coomassie staining (covalent isopeptide adduct)

KLGDIEFIKVNK [synthetic SnoopTag peptide]
binding result (SnoopCatcher [1]): binds

B1
binding result (SnoopTag-MBP [2]): no binding | binding result (SnoopCatcher [3]): no binding | binding result (SpyCatcher): no binding

B2
binding result (SnoopTag-MBP [4]): binds
